Results as given in IntAct's records for PubMed 16510448.

B1: DNA polymerase delta subunit 4 (Homo sapiens), Q9HCU8 (parent)
chain: MGRKRLITDSYPVVKRREGPAGHSKGELAPELGEEPQPRDEEEAELELLRQFDLAWQYGPCTGITRLQRWCRAKQMGLEPPPEVWQVLKTHPGDPRFQCSLWHLYPL

Variants of: B1
Conditions: with pcna_human PCNA

Variant | effect of a mutation on the interaction
MGRKRLATDAAPVVKRREGPAGHSKGELAPELGEEPQPRDEEEAELELLRQFDLAWQYGPCTGITRLQRWCRAKQMGLEPPPEVWQVLKTHPGDPRFQCSLWHLYPL [I7A;S10A;Y11A] | disrupting interaction
